Test [1] concerns the target T1, mouse vascular endothelial growth factor receptor-2 Fc chimera (Flk-1-Fc) (mouse, UniProt P35918 20-762).
T1 construct: Purchased from R&D Systems; also called mouse VEGF-R2; not shown: Fc part of the purchased chimera
The test can be described thus: binding to 1 nM Flk-1-Fc, % of input; radioactive equilibrium binding (assay not given). Here is the method: (§1) To prepare ³⁵S-labeled binding proteins for analysis, mRNA was prepared as described above for RNA-protein fusion production but the linker ligation step was omitted. The mRNA was expressed using rabbit reticulocyte lysate translation kit (Ambion) in the presence of ³⁵S-labeled Met at 30° C. for 1 hour. Expressed protein was purified on M2-agarose Flag beads (Sigma) as described above. This procedure produced the encoded protein without the nucleic acid tail. In a direct binding assay, VEGF-R2-Fc fusions in concentrations ranging from 0 to 200 nM were added to a constant concentration of the purified protein (0.2 or 0.5 nM) and incubated at 30° C. for 1 hour in buffer B. The receptor-binder complexes were captured using Protein A magnetic beads for another 10 minutes at room temperature using a Kingfisher™ The beads were washed with six reaction volumes of buffer B. The protein was eluted from the beads with 100 μL of 0.1 M KOH. […] of the reaction mixture and elution were dried onto a LumaPlate-96 (Packard) and the amount of ³⁵S on the plate was measured using a TopCount NXT instrument (Packard). The amount of fibronectin-based scaffold protein bound to the target was estimated as a percent of radioactivity eluted from Protein A magnetic beads compare to radioactivity in the reaction mixture. Nonspecific binding of fibronectin-based scaffold proteins to the beads was determined by measuring binding in the absence of KDR-Fc and represented less than 1-2% of the input. Specific binding was obtained through subtraction of nonspecific binding from total binding. Data was analyzed using the GraphPad Prizm software (GraphPad Software, Inc, San Diego, Calif.), fitted using a one site, non-linear binding equation.

Test [2] deals with T2, human vascular endothelial growth factor receptor-2 Fc chimera (KDR-Fc) (human, UniProt P35968 20-764).
T2 construct: range 1-764; also called human VEGFR-2; hKDR; not shown: human IgG1 Fc
Kind of test: binding to 1 nM KDR-Fc, % of input; radioactive equilibrium binding (assay not given). Here is the method: as §1

Test [3] concerns the target T2, human vascular endothelial growth …. Kind of test: radioactive equilibrium binding (assay not given). Here is the method: as §1

As a reminder, the Kd is the equilibrium constant for the complex coming apart.

T2 sequence (P35968 20-764 limits assumed, change not shown, form in doubt): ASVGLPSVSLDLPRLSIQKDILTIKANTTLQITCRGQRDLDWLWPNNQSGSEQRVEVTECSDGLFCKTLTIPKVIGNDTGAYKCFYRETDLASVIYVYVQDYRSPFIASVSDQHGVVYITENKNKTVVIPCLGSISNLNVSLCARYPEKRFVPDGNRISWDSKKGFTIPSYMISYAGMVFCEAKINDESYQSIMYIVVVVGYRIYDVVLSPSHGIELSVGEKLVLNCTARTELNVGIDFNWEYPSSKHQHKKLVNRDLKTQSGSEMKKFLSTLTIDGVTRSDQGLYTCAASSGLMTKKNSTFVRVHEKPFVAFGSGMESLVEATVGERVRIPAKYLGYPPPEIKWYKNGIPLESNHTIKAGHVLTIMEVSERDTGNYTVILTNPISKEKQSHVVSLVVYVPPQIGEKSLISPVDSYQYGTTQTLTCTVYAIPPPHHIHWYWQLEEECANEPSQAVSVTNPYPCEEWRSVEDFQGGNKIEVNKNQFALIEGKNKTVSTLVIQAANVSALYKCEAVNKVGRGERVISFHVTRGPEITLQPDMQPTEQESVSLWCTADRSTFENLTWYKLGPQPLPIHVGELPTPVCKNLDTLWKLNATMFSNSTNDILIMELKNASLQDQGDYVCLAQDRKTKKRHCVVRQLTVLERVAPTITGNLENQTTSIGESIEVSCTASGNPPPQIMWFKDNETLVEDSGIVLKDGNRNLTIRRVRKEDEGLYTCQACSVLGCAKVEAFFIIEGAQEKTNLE
T1 sequence (P35918 20-762, change not shown): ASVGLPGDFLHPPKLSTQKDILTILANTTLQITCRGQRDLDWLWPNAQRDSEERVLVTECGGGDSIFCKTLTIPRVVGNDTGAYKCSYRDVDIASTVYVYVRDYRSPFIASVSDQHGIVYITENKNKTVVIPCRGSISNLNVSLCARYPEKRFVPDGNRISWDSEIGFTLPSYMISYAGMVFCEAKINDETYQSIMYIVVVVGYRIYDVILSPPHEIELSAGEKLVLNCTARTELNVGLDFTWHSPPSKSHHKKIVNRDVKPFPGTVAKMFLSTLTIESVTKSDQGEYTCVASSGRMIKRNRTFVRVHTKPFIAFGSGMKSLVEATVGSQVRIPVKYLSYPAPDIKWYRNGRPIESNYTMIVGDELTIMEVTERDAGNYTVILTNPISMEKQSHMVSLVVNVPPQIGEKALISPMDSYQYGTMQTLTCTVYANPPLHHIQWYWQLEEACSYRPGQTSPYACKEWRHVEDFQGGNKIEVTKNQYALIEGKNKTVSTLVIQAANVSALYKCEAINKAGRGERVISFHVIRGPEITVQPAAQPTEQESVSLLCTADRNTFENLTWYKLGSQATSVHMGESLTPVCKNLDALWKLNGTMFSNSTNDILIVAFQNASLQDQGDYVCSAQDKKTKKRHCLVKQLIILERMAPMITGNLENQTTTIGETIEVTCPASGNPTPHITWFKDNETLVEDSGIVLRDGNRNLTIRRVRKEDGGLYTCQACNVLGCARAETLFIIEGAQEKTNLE

B1: E8 (designed binder)
chain: EVVAATPTSLLISWRHPHFPTRYYRITYGETGGNSPVQEFTVPLQPPTATISGLKPGVDYTITGYAVTEEWNGRVLMTPISINYRT
notes: Del 1-8 10Fn3 clone; Flag tag of the radioactive-assay form not included
Turning to B1, in test [1], the “Binding to 1 nM FLK, %” value turned out to be 10%. In addition, in test [2], the “Binding to 1 nM KDR, %” value turned out to be 51%.

B2: K10 (designed binder)
chain: EVVAATPTSLLISWRHPHFPTRYYRITYGETGGNSPVQEFTVPLQPPTATISGLKPGVDYTITGYAVTTGPNDRLLFVPISINYRT
notes: Del 1-8 10Fn3 clone; Flag tag of the assay form not included
B2: in test [3], the Kd turned out to be 0.57 nM. In addition, the “Binding to 1 nM KDR, %” value in test [2] was found to be 33%.

B3: E17 (designed binder)
chain: EVVAATPTSLLISWRHPHFPTRYYRITYGETGGNSPVQEFTVPLQPPTATISGLKPGVDYTITGYAVTVEENGRVLNTPISINYRT
notes: as for B1
B3: the “Binding to 1 nM FLK, %” value in test [1] was 10%. The “Binding to 1 nM KDR, %” value in test [2] was 32%.

B4: E22 (designed binder)
chain: EVVAATPTSLLISWRHPHFPTRYYRITYGETGGNSPVQEFTVPLQPPTATISGLKPGVDYTITGYAVTLGRNDRELLTPISINYRT
notes: as for B1
As to B4, the “Binding to 1 nM KDR, %” value in test [2] was determined as 45%.

B5: E20 (designed binder)
chain: EVVAATPTSLLISWRHPHFPTRYYRITYGETGGNSPVQEFTVPLQPPTATISGLKPGVDYTITGYAVTVERNGQVLYTPISINYRT
notes: as for B1
For B5, the “Binding to 1 nM FLK, %” value in test [1] turned out to be 11%. Besides, in test [2], the “Binding to 1 nM KDR, %” value was 43%.

B6: E13 (designed binder)
chain: EVVAATPTSLLISWRHPHFPTRYYRITYGETGGNSPVQEFTVPLQPPTATISGLKPGVDYTITGYAVTLEQNGRELMTPISINYRT
notes: as for B1
On to B6, for which the “Binding to 1 nM KDR, %” value in test [2] is 38%.

B7: E16 (designed binder)
chain: EVVAATPTSLLISWRHPHFPTRYYRITYGETGGNSPVQEFTVPLQPPTATISGLKPGVDYTITGYAVTVEENGRQLMTPISINYRT
notes: as for B1
For the molecule B7, in test [1], the “Binding to 1 nM FLK, %” value is 0%. Besides, the “Binding to 1 nM KDR, %” value in test [2] is 35%.

B8: K7 (designed binder)
chain: EVVAATPTSLLISWRHPHFPTRYYRITYGETGGNSPVQEFTVPLQPPTATISGLKPGVDYTITGYAVTSGHNDHMLMIPISINYRT
notes: as for B2
On to B8, for which the Kd in test [3] came out at 2.2 nM. Also, the “Binding to 1 nM KDR, %” value in test [2] was 40%.

B9: E27 (designed binder)
chain: EVVAATPTSLLISWRHPHFPTRYYRITYGETGGNSPVQEFTVPLQPPTATISGLKPGVDYTITGYAVTVERNGHTLMTPISINYRT
notes: as for B1
As to B9, the “Binding to 1 nM FLK, %” value in test [1] amounted to 9%. The “Binding to 1 nM KDR, %” value in test [2] worked out at 37%.

B10: E14 (designed binder)
chain: EVVAATPTSLLISWRHPHFPTRYYRITYGETGGNSPVQEFTVPLQPPTATISGLKPGVDYTITGYAVTLERNGQVLFTPISINYRT
notes: as for B1
Turning to B10, the “Binding to 1 nM FLK, %” value in test [1] came out at 11%. Besides, in test [2], the “Binding to 1 nM KDR, %” value came out at 33%.

B11: K12 (designed binder)
chain: EVVAATPTSLLISWRHPHFPTRYYRITYGETGGNSPVQEFTVPLQPPTATISGLKPGVDYTITGYAVTDVYNDHEIKTPISINYRT
notes: as for B2
With B11, the Kd in test [3] is 0.62 nM. In test [2], the “Binding to 1 nM KDR, %” value stood at 29%.

B12: K14 (designed binder)
chain: EVVAATPTSLLISWRHPHFPTRYYRITYGETGGNSPVQEFTVPLQPPTATISGLKPGVDYTITGYAVTREENDHELLIPISINYRT
notes: as for B2
For the molecule B12, the Kd in test [3] is 0.57 nM. Also, the “Binding to 1 nM KDR, %” value in test [2] is 20%.

B13: K1 (designed binder)
chain: EVVAATPTSLLISWRHPHFPTRYYRITYGETGGNSPVQEFTVPLQPPTATISGLKPGVDYTITGYAVTMGLYGHELLTPISINYRT
notes: Del 1-8 10Fn3 clone; tag not included
For B13, the Kd in test [3] was 0.55 nM. For the same molecule, the “Binding to 1 nM KDR, %” value in test [2] stood at 48%.

B14: K13 (designed binder)
chain: EVVAATPTSLLISWRHPHFPTRYYRITYGETGGNSPVQEFTVPLQPPTATISGLKPGVDYTITGYAVTLALKGHELLTPISINYRT
notes: as for B2
On to B14, for which, in test [3], the Kd turned out to be 0.58 nM. For the same molecule, the “Binding to 1 nM KDR, %” value in test [2] came out at 17%.

B15: K15 (designed binder)
chain: EVVAATPTSLLISWRHPHFPTRYYRITYGETGGNSPVQEFTVPLQPPTATISGLKPGVDYTITGYAVTEVHHDREIKTPISINYRT
notes: as for B2
For B15, the Kd in test [3] was 0.35 nM. For the same molecule, the “Binding to 1 nM KDR, %” value in test [2] was found to be 25%.

B16: E15 (designed binder)
chain: EVVAATPTSLLISWRHPHFPTRYYRITYGETGGNSPVQEFTVPLQPPTATISGLKPGVDYTITGYAVTLEPNGRYLMVPISINYRT
notes: as for B1
Take B16: the “Binding to 1 nM KDR, %” value in test [2] is 52%.

B17: E12 (designed binder)
chain: EVVAATPTSLLISWRHPHFPTRYYRITYGETGGNSPVQEFTVPLQPPTATISGLKPGVDYTITGYAVTFARDGHEILTPISINYRT
notes: as for B1
Turning to B17, the “Binding to 1 nM KDR, %” value in test [2] turned out to be 36%.

B18: K4 (designed binder)
chain: EVVAATPTSLLISWRHPHFPTRYYRITYGETGGNSPVQEFTVPLQPPTATISGLKPGVDYTITGYAVTAGYNDQILMTPISINYRT
notes: as for B2
B18: the Kd in test [3] is 1.95 nM. Also, the “Binding to 1 nM KDR, %” value in test [2] was 38%.

B19: K2 (designed binder)
chain: EVVAATPTSLLISWRHPHFPTRYYRITYGETGGNSPVQEFTVPLQPPTATISGLKPGVDYTITGYAVTDGENGQFLLVPISINYRT
notes: as for B2
For the molecule B19, the Kd in test [3] came out at 1.19 nM. In test [2], the “Binding to 1 nM KDR, %” value came out at 48%.

B20: K3 (designed binder)
chain: EVVAATPTSLLISWRHPHFPTRYYRITYGETGGNSPVQEFTVPLQPPTATISGLKPGVDYTITGYAVTAGWDDHELFIPISINYRT
notes: as for B2
As to B20, in test [3], the dissociation constant Kd was found to be 1.15 nM. The “Binding to 1 nM KDR, %” value in test [2] is 45%.

B21: E24 (designed binder)
chain: EVVAATPTSLLISWRHPHFPTRYYRITYGETGGNSPVQEFTVPLQPPTATISGLKPGVDYTITGYAVTVERNDRVLFTPISINYRT
notes: as for B1
As to B21, the “Binding to 1 nM FLK, %” value in test [1] amounted to 29%. For the same molecule, the “Binding to 1 nM KDR, %” value in test [2] worked out at 24%.

B22: E21 (designed binder)
chain: EVVAATPTSLLISWRHPHFPTRYYRITYGETGGNSPVQEFTVPLQPPTATISGLKPGVDYTITGYAVTWGYKDHELLIPISINYRT
notes: as for B1
B22: the “Binding to 1 nM KDR, %” value in test [2] is 47%.

B23: K6 (designed binder)
chain: EVVAATPTSLLISWRHPHFPTRYYRITYGETGGNSPVQEFTVPLQPPTATISGLKPGVDYTITGYAVTDGKDGRVLLTPISINYRT
notes: as for B2
Turning to B23, the Kd in test [3] is 0.93 nM. Moreover, in test [2], the “Binding to 1 nM KDR, %” value was 27%.

B24: K8 (designed binder)
chain: EVVAATPTSLLISWRHPHFPTRYYRITYGETGGNSPVQEFTVPLQPPTATISGLKPGVDYTITGYAVTVTHNGHPLMTPISINYRT
notes: as for B2
For B24, the Kd in test [3] came out at 3.3 nM. In addition, the “Binding to 1 nM KDR, %” value in test [2] is 18%.

B25: E10 (designed binder)
chain: EVVAATPTSLLISWRHPHFPTRYYRITYGETGGNSPVQEFTVPLQPPTATISGLKPGVDYTITGYAVTEGRNGRELFIPISINYRT
notes: Del 1-8 10Fn3 clone; Flag tag not included
For B25, in test [2], the “Binding to 1 nM KDR, %” value is 53%.

B26: E2 (designed binder)
chain: EVVAATPTSLLISWRHPHFPTRYYRITYGETGGNSPVQEFTVPLQPPTATISGLKPGVDYTITGYAVTDGPNDRLLNIPISINYRT
notes: as for B1
Turning to B26, the “Binding to 1 nM KDR, %” value in test [2] worked out at 53%.

B27: K5 (designed binder)
chain: EVVAATPTSLLISWRHPHFPTRYYRITYGETGGNSPVQEFTVPLQPPTATISGLKPGVDYTITGYAVTMGPNDNELLTPISINYRT
notes: as for B2
For the molecule B27, the Kd in test [3] stood at 1.54 nM. In test [2], the “Binding to 1 nM KDR, %” value is 47%.

B28: K9 (designed binder)
chain: EVVAATPTSLLISWRHPHFPTRYYRITYGETGGNSPVQEFTVPLQPPTATISGLKPGVDYTITGYAVTFGLYGKELLIPISINYRT
notes: as for B2
B28: the Kd in test [3] amounted to 1.8 nM. Also, in test [2], the “Binding to 1 nM KDR, %” value stood at 35%.

B29: K11 (designed binder)
chain: EVVAATPTSLLISWRHPHFPTRYYRITYGETGGNSPVQEFTVPLQPPTATISGLKPGVDYTITGYAVTQAPNDRVLYTPISINYRT
notes: as for B2
For B29, the Kd in test [3] was 1.16 nM. Moreover, in test [2], the “Binding to 1 nM KDR, %” value was found to be 24%.
